Reference: doi:10.1101/2024.12.17.628833 (bioRxiv, 2024)

B1: AtGORK^623 (residues 1 to 623) (domain or fragment, Arabidopsis thaliana, UniProt Q94A76 1-623, looked up)
chain: MGRLRRRQEIIDHEEEESNDDVSSRRGKLSLAETFRWLDSSEHRRIETDGHNDYKYIIHPKNRWYKAWEMFILVWAIYSSLFTPMEFGFFRGLPERLFVLDIVGQIAFLVDIVLQFFVAYRDTQTYRTVYKPTRIAFRYLKSHFLMDFIGCFPWDLIYKASGKHELVRYLLWIRLFRVRKVVEFFQRLEKDTRINYLFTRILKLLFVEVYCTHTAACIFYYLATTLPPENEGYTWIGSLKLGDYSYENFREIDLWKRYTTALYFAIVTMATVGYGDIHAVNLREMIFVMIYVSFDMVLGAYLIGNITALIVKGSNTERFRDKMNDLISFMNRKKLGRDLRSQITGHVRLQYDSHYTDTVMLQDIPASIRAKIAQLLYLPYIKKVPLFKGCSTEFINQIVIRLHEEYFLPGEVITEQGNVVDHLYFVCEGLLEALVTKTDGSEESVTLLGPHTSFGDISIICNISQPFTVRVCELCHLLRLDKQSFSNILEIYFHDGRTILNNIMEEKESNDRIKKLESDIVIHIGKQEAELALKVNSAAFQGDFYQLKSLIRSGADPNKTDYDGRSPLHLAACRGYEDITLFLIQEGVDVNLKDKFGHTPLFEAVKAGQEGVIGLLVKEGASF
B2: AtGORK^510 (residues 1 to 510) (domain or fragment, Arabidopsis thaliana, UniProt Q94A76 1-510, looked up)
chain: MGRLRRRQEIIDHEEEESNDDVSSRRGKLSLAETFRWLDSSEHRRIETDGHNDYKYIIHPKNRWYKAWEMFILVWAIYSSLFTPMEFGFFRGLPERLFVLDIVGQIAFLVDIVLQFFVAYRDTQTYRTVYKPTRIAFRYLKSHFLMDFIGCFPWDLIYKASGKHELVRYLLWIRLFRVRKVVEFFQRLEKDTRINYLFTRILKLLFVEVYCTHTAACIFYYLATTLPPENEGYTWIGSLKLGDYSYENFREIDLWKRYTTALYFAIVTMATVGYGDIHAVNLREMIFVMIYVSFDMVLGAYLIGNITALIVKGSNTERFRDKMNDLISFMNRKKLGRDLRSQITGHVRLQYDSHYTDTVMLQDIPASIRAKIAQLLYLPYIKKVPLFKGCSTEFINQIVIRLHEEYFLPGEVITEQGNVVDHLYFVCEGLLEALVTKTDGSEESVTLLGPHTSFGDISIICNISQPFTVRVCELCHLLRLDKQSFSNILEIYFHDGRTILNNIMEEKESN
B3: full-length Arabidopsis GORK (AtGORK^FL, residues 1 to 820) (natural protein, Arabidopsis thaliana, UniProt Q94A76 1-820, looked up)
chain: MGRLRRRQEIIDHEEEESNDDVSSRRGKLSLAETFRWLDSSEHRRIETDGHNDYKYIIHPKNRWYKAWEMFILVWAIYSSLFTPMEFGFFRGLPERLFVLDIVGQIAFLVDIVLQFFVAYRDTQTYRTVYKPTRIAFRYLKSHFLMDFIGCFPWDLIYKASGKHELVRYLLWIRLFRVRKVVEFFQRLEKDTRINYLFTRILKLLFVEVYCTHTAACIFYYLATTLPPENEGYTWIGSLKLGDYSYENFREIDLWKRYTTALYFAIVTMATVGYGDIHAVNLREMIFVMIYVSFDMVLGAYLIGNITALIVKGSNTERFRDKMNDLISFMNRKKLGRDLRSQITGHVRLQYDSHYTDTVMLQDIPASIRAKIAQLLYLPYIKKVPLFKGCSTEFINQIVIRLHEEYFLPGEVITEQGNVVDHLYFVCEGLLEALVTKTDGSEESVTLLGPHTSFGDISIICNISQPFTVRVCELCHLLRLDKQSFSNILEIYFHDGRTILNNIMEEKESNDRIKKLESDIVIHIGKQEAELALKVNSAAFQGDFYQLKSLIRSGADPNKTDYDGRSPLHLAACRGYEDITLFLIQEGVDVNLKDKFGHTPLFEAVKAGQEGVIGLLVKEGASFNLEDSGNFLCTTVAKGDSDFLKRLLSSGMNPNSEDYDHRTPLHVAASEGLFLMAKMLVEAGASVISKDRWGNSPLDEARLCGNKKLIKLLEDVKNAQSSIYPSSLRELQEERIERRKCTVFPFHPQEAKEERSRKHGVVVWIPSNLEKLIVTAAKELGLSDGASFVLLSEDQGRITDIDMISDGHKLYMISDTTDQT

Target: the molecule itself
Assay: cryo-EM structure

Stoichiometry N, 4:
B1, B2, B3
